Data as given in patent publication US20220235123A1 (UNIVERSITY OF TORONTO, published 2022).

How the values were obtained:
[1] = biological target: recombinant human vascular endothelial growth factor (hVEGF) 121 (human) (UniProt P15692); test: single point competitive phage-ELISA: residual binding of the Fab-phage to hVEGF after competition with 1 nM hVEGF
[2] = biological target: T1, recombinant human vascular endothelial growth factor (hVEGF) 121 (human, UniProt P15692 27-147); test: competitive Fab-ELISA (hVEGF)
T1 construct: mature; also called human VEGF-A121; hVEGF 121 isoform
T1 sequence (looked up): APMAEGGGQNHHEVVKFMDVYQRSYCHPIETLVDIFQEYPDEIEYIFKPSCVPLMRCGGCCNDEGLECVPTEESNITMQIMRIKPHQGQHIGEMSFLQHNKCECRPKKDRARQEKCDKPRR

[3] = biological target: T1, recombinant human vascular endothelial …; test: single point competitive phage-ELISA: residual binding of the Fab-phage to hVEGF after competition with 1 nM hVEGF
[4] = biological target: T2, recombinant human VEGF 165 isoform (human, UniProt P15692 27-191); test: competitive ELISA in solution, 10 pM hVEGF-165, free VEGF read with Quantikine kit
T2 construct: mature
Excerpt: (§1) Kd calculated from the data fitted with a 5 parameter asymmetric model with Prism software.
Target sequence in this assay (P15692 other isoform, or with tags, fused parts or gaps): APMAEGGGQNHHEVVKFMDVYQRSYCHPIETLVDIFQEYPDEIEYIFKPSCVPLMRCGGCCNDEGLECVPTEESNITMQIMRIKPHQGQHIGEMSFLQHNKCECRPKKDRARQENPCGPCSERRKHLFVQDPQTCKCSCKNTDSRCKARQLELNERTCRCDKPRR

[5] = biological target: T1, recombinant human vascular endothelial …; test: competitive ELISA, 100 pM Fab with serial dilutions of hVEGF-121, free Fab caught on hVEGF-121 plate; Kd estimated from IC50
[6] = biological target: T2, recombinant human VEGF 165 isoform; test: cell-based or functional assay
[7] = biological target: T2, recombinant human VEGF 165 isoform; test: competitive ELISA in solution: 5 pM hVEGF-165 incubated with serial dilutions of the Fab; hVEGF-165 captured and detected with the Quantikine human VEGF ELISA kit
Excerpt: FIG. 11. Competitive Fab-ELISA.
Since library FF01159-1 was designed with a deletion of one residue near the end of CDR-L2 (Kabat), the selected Fabs FF03033-4 and FF03033-8 were mutagenized to reintroduce previously deleted tyrosine residue back at the deleted position.

[8] = biological target: T2, recombinant human VEGF 165 isoform; test: competitive ELISA in solution: 5 pM hVEGF-165 incubated with serial dilutions of the antibody; hVEGF-165 captured and detected with the Quantikine human VEGF ELISA kit
[9] = biological target: T2, recombinant human VEGF 165 isoform; test: competitive ELISA in solution: 5 pM hVEGF-165 incubated with serial dilutions of the antibody; hVEGF-165 captured and detected with the Quantikine human VEGF ELISA kit; 5 parameter fit
[10] = biological target: T1, recombinant human vascular endothelial …; test: competitive Fab-ELISA
[11] = biological target: T1, recombinant human vascular endothelial …; test: SPR, off rate of hVEGF-121 binding
[12] = biological target: T1, recombinant human vascular endothelial …; test: competitive ELISA with soluble Fab (column 'Affinity measured by competitive ELISA'); hVEGF, isoform not told in the legend
[13] = biological target: T1, recombinant human vascular endothelial …; test: competitive Fab-ELISA, data and fit for the Kd of panel A; x axis printed as LOG([Fab] nM) with ticks 10^-6 to 10^2; hVEGF, isoform not told
[14] = biological target: T2, recombinant human VEGF 165 isoform; test: competitive ELISA in solution: 10 pM hVEGF-165 incubated with serial dilutions of the Fab; hVEGF-165 captured and detected with the Quantikine human VEGF ELISA kit
Excerpt: FIG. 20. Competitive-ELISA. […] Kd was estimated using IC50 calculated from the data fitted with a 5 parameter asymmetric model with Prism software are shown in the table at the bottom of the figure.
as §1

B1: FF0117-A10 (Fab, V domains shown)
VH: EVQLVESGGGLVQPGGSLRLSCAASGFDLFHYSIHWVRQAPGKGLEWVAYIYPSYGYTYYADSVKGRFTISADTSKNTAYLQMNSLRAEDTAVYYCARHAWYYGWALDYWGQGTLVTVSS
VL: DIQMTQSPSSLSASVGDRVTITCRASQSVSSAVAWYQQKPGKAPKLLIYSASSLYSGVPSRFSGSRSGTDFTLTISSLQPEDFATYYCQQRGWYLFTFGQGTKVEIK
For B1, the Residual binding of competitive phage-ELISA 1nM [1] was 7%.

B2: FF0117-A8 (Fab, V domains shown)
VH: EVQLVESGGGLVQPGGSLRLSCAASGFDLFHYSIHWVRQAPGKGLEWVAYIYPSYGYTYYADSVKGRFTISADTSKNTAYLQMNSLRAEDTAVYYCARHAWYSGWALDYWGQGTLVTVSS
VL: DIQMTQSPSSLSASVGDRVTITCRASQSVSSAVAWYQQKPGKAPKLLIYSASSLYSGVPSRFSGSRSGTDFTLTISSLQPEDFATYYCQQRGWYLFTFGQGTKVEIK
notes: fourth generation Fab from the library based on FF0188-H5
For B2, the Kd [2] was 0.13 nM and the “Residual binding of competitive phage-ELISA 1nM” value (“Residual binding” for short) [3] was 17%.

B3: Fab 201 (Variant 201, produced from Clone #201) (Fab, V domains shown)
VH: EVQLVESGGGLVQPGGSLRLSCAASGFDLFHYSIHWVRQAPGKGLEWVAYIYPSYGYTYYADSVKGRFTISADTSKNTAYLQMNSLRAEDTAVYYCARHAWYYGWGLDYWGQGTLVTVSS
VL: DIQMTQSPSSLSASVGDRVTITCRASQAAYGRVAWYQQKPGKAPKLLIYKASELYAGVPSRFSGSRSGTDFTLTISSLQPEDFATYYCQQRGWYLFTFGQGTKVEIKR
notes: also called Fab-F8.y
For B3, the Kd [4] was 0.025 nM and the Kd [5] was 0.11 nM.

B4: Fab FF03046-2 (Fab, V domains shown)
VH: EVQLVESGGGLVQPGGSLRLSCAASGFDLFHYSIHWVRQAPGKGLEWVAYIYPSYGYTYYADSVKGRFTISADTSKNTAYLQMNSLRAEDTAVYYCARHAWYYGWGLDYWGQGTLVTVSS
VL: DIQMTQSPSSLSASVGDRVTITCRASQAAYGRVAWYQQKPGKAPKLLIYKASELYAGVPSRFSGSRSGTDFTLTISSLQPEDFATYYCQQRGWYLFTFGQGTKVEIKR
notes: also called FF0346-2
B4 was tested, and the “EC50, HUVEC proliferation assay” value [6] was 0.2 nM, the “IC50 (read off the curve)” value [7] was about 0.09 nM and the “IC50 (read off the curve)” value [8] was about 0.09 nM. The Kd [9] was 0.09 nM.

B5: FF0117-A11 (Fab, V domains shown)
VH: EVQLVESGGGLVQPGGSLRLSCAASGFDLFHYSIHWVRQAPGKGLEWVAYIYPSYGYTYYADSVKGRFTISADTSKNTAYLQMNSLRAEDTAVYYCARHAWYWGWALDYWGQGTLVTVSS
VL: DIQMTQSPSSLSASVGDRVTITCRASQSVSSAVAWYQQKPGKAPKLLIYSASSLYSGVPSRFSGSRSGTDFTLTISSLQPEDFATYYCQQRGWYLFTFGQGTKVEIK
notes: as for B2
B5 was tested, and the Kd [2] was 0.03 nM and the “Residual binding” value [3] was 5%.

B6: FF0117-A3 (Fab, V domains shown)
VH: EVQLVESGGGLVQPGGSLRLSCAASGFDLFHYSIHWVRQAPGKGLEWVAYIYPSYGYTYYADSVKGRFTISADTSKNTAYLQMNSLRAEDTAVYYCARHAWYFGWALDYWGQGTLVTVSS
VL: DIQMTQSPSSLSASVGDRVTITCRASQSVSSAVAWYQQKPGKAPKLLIYSASSLYSGVPSRFSGSRSGTDFTLTISSLQPEDFATYYCQQRGWYLFTFGQGTKVEIK
notes: as for B2
In the case of B6, the Kd [2] is reported as 0.06 nM and the “Residual binding” value [3] is reported as 7%.

B7: FF0117-A5 (Fab, V domains shown)
VH: EVQLVESGGGLVQPGGSLRLSCAASGFDLFHYSIHWVRQAPGKGLEWVAYIYPSYGYTYYADSVKGRFTISADTSKNTAYLQMNSLRAEDTAVYYCARHAWYYGWGLDYWGQGTLVTVSS
VL: DIQMTQSPSSLSASVGDRVTITCRASQSVSSAVAWYQQKPGKAPKLLIYSASSLYSGVPSRFSGSRSGTDFTLTISSLQPEDFATYYCQQRGWYLFTFGQGTKVEIK
notes: Fourth generation Fab; also called FF0117-A5 (2); Fab-A5
For B7, the Kd [10] was 0.08 nM, the koff [11] was 0.000255 s⁻¹ and the “Residual binding” value [3] was 14%.

B8: FF0188-B10 (Fab, V domains shown)
VH: EVQLVESGGGLVQPGGSLRLSCAASGFDLFHYSIHWVRQAPGKGLEWVAYIYPSYGYTYYADSVKGRFTISADTSKNTAYLQMNSLRAEDTAVYYCARHAWYSGWAMDYWGQGTLVTVSS
VL: DIQMTQSPSSLSASVGDRVTITCRASQSVSSAVAWYQQKPGKAPKLLIYSASSLYSGVPSRFSGSRSGTDFTLTISSLQPEDFATYYCQQRGWYLFTFGQGTKVEIK
notes: third generation Fab from libraries based on FF0158-C4; also called FF01088-B10
B8 was tested, and the Kd [12] was 0.41 nM and the “IC50 (read off the curve)” value [13] was about 0.4 nM.

B9: Fab variant 216 (Fab 216, derived from Clone #201) (Fab, V domains shown)
VH: EVQLVESGGGLVQPGGSLRLSCAASGFDLDHYSIHWVRQAPGKGLEWVAYIYPSYGYTYYADSVKGRFTISADTSKNTAYLQMNSLRAEDTAVYYCARHAWYYGWGLDYWGQGTLVTVSS
VL: DIQMTQSPSSLSASVGDRVTITCRASQAAYGRVAWYQQKPGKAPKLLIYKASELYAGVPSRFSGSRSGTDFTLTISSLQPEDFATYYCQQRGWYLFTFGQGTKVEIKR
In the case of B9, the Kd [4] is reported as 0.035 nM and the “IC50 (read off the curve)” value [14] is reported as about 0.04 nM.

B10: FF0158-C4 (Fab, V domains shown)
VH: EVQLVESGGGLVQPGGSLRLSCAASGFNLYYYSIHWVRQAPGKGLEWVAYIYPSYGYTYYADSVKGRFTISADTSKNTAYLQMNSLRAEDTAVYYCARHAWYSGWAMDYWGQGTLVTVSS
VL: DIQMTQSPSSLSASVGDRVTITCRASQSVSSAVAWYQQKPGKAPKLLIYSASSLYSGVPSRFSGSRSGTDFTLTISSLQPEDFATYYCQQRGWYLFTFGQGTKVEIK
notes: Second generation Fab, Fab-phage in the single point assay; also called FF0158-C4 (2)
In the case of B10, the Kd [12] is reported as 0.15 nM and the “IC50 (read off the curve)” value [13] is reported as about 0.1 nM.

B11: FF0188-H5 (Fab, V domains shown)
VH: EVQLVESGGGLVQPGGSLRLSCAASGFDLFHYSIHWVRQAPGKGLEWVAYIYPSYGYTYYADSVKGRFTISADTSKNTAYLQMNSLRAEDTAVYYCARHAWYSGWAMDYWGQGTLVTVSS
VL: DIQMTQSPSSLSASVGDRVTITCRASQSVSSAVAWYQQKPGKAPKLLIYSASSLYSGVPSRFSGSRSGTDFTLTISSLQPEDFATYYCQQRGWYLFTFGQGTKVEIK
notes: third generation Fab, parent of the FF0117 library; also called FF0188-H5(2)
B11 was tested, and the Kd [2] was 0.4 nM, the Kd [12] was 0.45 nM and the “IC50 (read off the curve)” value [13] was about 0.4 nM.
